Test results taken from patent publication US20190216947A1.

Key:
[1] = molecular target: Human CD47 (human) (UniProt Q08722); assay: SPR
[2] = molecular target: Mouse CD47 (mouse) (UniProt Q61735); assay: SPR
Sequence of Mouse CD47 (mouse) (Q61735 19-140 limits assumed): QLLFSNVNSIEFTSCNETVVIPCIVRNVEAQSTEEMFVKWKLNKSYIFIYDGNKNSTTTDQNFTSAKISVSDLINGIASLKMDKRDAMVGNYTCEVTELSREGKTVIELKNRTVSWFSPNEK

Sequence of Human CD47 (human) (Q08722 19-139 limits assumed): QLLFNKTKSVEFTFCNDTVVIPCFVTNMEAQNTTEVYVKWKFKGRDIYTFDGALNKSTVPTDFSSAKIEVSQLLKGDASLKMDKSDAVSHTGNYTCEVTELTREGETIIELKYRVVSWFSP

monomeric SIRPα (mSIRPα) (receptor)
Kd [1]: 5.4 pM | koff [1]: 3.7e-05 s⁻¹ | kon [1]: 7e+06 M⁻¹ s⁻¹ | Kd [2]: 6.2 nM | koff [2]: 0.011 s⁻¹ | kon [2]: 1.8e+06 M⁻¹ s⁻¹
